The record followed here is PMC7584586.

The target of assay [1] is TfiA, yeast two-hybrid fusion (Helicobacter pylori). The experiment in a line: two-hybrid; pGBT9 bait and pGAD424 prey in S. cerevisiae PJ69-4A; lacZ reporter, β-galactosidase activity in cell extracts with ONPG.
The target in assay [2] is TfiT, yeast two-hybrid fusion (Helicobacter pylori). Described as above.

In assay [1], “TfiA, yeast two-hybrid fusion (natural protein)” came in with a lacZ fold increase relative to the self-activation control of the bait vector of 27.4 fold and a lacZ reporter activity (Miller units) of 129 Miller units. Also, in assay [2], the lacZ fold increase relative to the self-activation control of the bait vector worked out at 47.2 fold and the lacZ reporter activity (Miller units) amounted to 89.8 Miller units.

In assay [1], TfiT, yeast two-hybrid fusion (enzyme) gave a lacZ fold increase relative to the self-activation control of the bait vector of 12.9 fold and a lacZ reporter activity (Miller units) of 60.8 Miller units.
